Measured values reported in publication PMC4106346, “The Oligomeric States of the Purified Sigma-1 Receptor Are Stabilized by Ligands” (The Journal of Biological Chemistry, 2014).

Molecular target: Q60492
Assay: TOXCAT (ToxR-driven CAT reporter of transmembrane self-association); TM domain between MBP and ToxR in the membrane of E. coli MM39; CAT activity of lysates as percent of glycophorin A
Conditions: other: TOXCAT (ToxR-driven CAT reporter of transmembrane self-association)

WVFVNAGGWMLAMCLLHASL [TM2 domain of S1R with G91L in the TOXCAT construct]
TOXCAT response relative to nonmutated TM2: attenuated to only 60% of that observed from the nonmutated TM2
